Results: paper PMC9582194, “The effect of helix-inducing constraints and downsizing upon a transcription block survival-derived functional cJun antagonist” (Cell Reports. Physical Science, 2022)
Positions of bridges follow the written chain, without caps; N, C: chain ends. Residues, ends and D or L forms follow the SMILES beside them. No end group written: not given here.

How the values were obtained:
[1] = target: T1, cJun (Homo sapiens, UniProt P05412); test: CD thermal denaturation of peptide-cJun heterodimers (Tm); assay type: binding; settings: CD ellipticity at 222 nm, 1-90 °C; peptide (5 μM)/cJun (5 μM); 20 mM potassium phosphate, 150 mM potassium fluoride, 2 mM TCEP pH 7.4; two-state fit; duplicate experiments, ± one SD
T1 construct: The same 60 amino acid cJun construct, encompassing the entire bZIP domain, was used for all experiments
Procedure: (§1) The precise nature of the interaction between the cJun DBD and the rationally designed acidic domain of HW1 is unknown. HW1 was, therefore, iteratively truncated from the N terminus (HW2–6) to investigate the effect on cJun binding and cJun/TRE DNA antagonism (Table 1). Peptide fraction helicity (fH) was determined by quantifying the circular dichroism (CD) signal at 222 nm of peptide-only samples (Figure S1). Thermal denaturation experiments were then used to determine the melting temperature (Tm) of peptide-cJun heterodimers, which serves as an approximate measure of target engagement. CD was also used to investigate the functional activity of peptides in antagonizing the cJun/TRE DNA interaction. […] This provides a clear and direct measurement of the proportion of DNA bound to cJun. As antagonist peptide concentration was increased, the peak shifted to overlay with that of free TRE-DNA (Figure S4). For each peptide, the data were fit to a Hill equation to determine half-maximal inhibitory concentration (IC50) values, specific to these assay conditions, providing a clear comparative measure of antagonism. The same 60 amino acid cJun construct, encompassing the entire bZIP domain, was used for all experiments regardless of antagonist peptide length.
Figure 2 Iterative N-terminal truncation of HingeW reduces cJun binding and antagonism (A) Thermal denaturation profiles for iteratively truncated peptide (5 μM)/cJun (5 μM) heterodimer samples. (B) CD antagonism data produced by monitoring the shift in a DNA specific peak to provide a direct readout of cJun-DNA binding. Peptides are added at the indicated concentrations to a pre-incubated mixture of cJun (20 μM) and TRE DNA (5 μM). Data points were averaged from triplicate experiments, and error bars indicate one SD. The data were fitted to a Hill equation to determine IC50 values. Some higher peptide concentration data points for HW6 and HW9 are not shown in this plot for clarity.

[2] = Peptide fraction helicity by CD at 222 nm, peptide-only samples; assay type: physicochemical; settings: for fH, peptide fraction helicity: CD signal at 222 nm of peptide-only samples, pH 7.4 phosphate/KF/TCEP buffer, duplicate experiments
Procedure: as §1

[3] = target: T2, cJun (60 amino acid construct encompassing the entire bZIP domain) (UniProt P05412 252-315); test: ITC; antagonist peptide at 25–200 μM injected into cJun at 2.5–20 μM in the cell, 25°C; 20 mM potassium phosphate, 150 mM potassium fluoride, 2 mM TCEP, pH 7.4; one-site binding model; two independent experiments; settings: both partners purified
[4] = target: T2, cJun (60 amino acid construct …); test: CD thermal denaturation; peptide (5 μM) with cJun (5 μM); ellipticity at 222 nm, 1°C to 90°C; 20 mM potassium phosphate, 150 mM potassium fluoride, 2 mM TCEP, pH 7.4; two-state fit gives the Tm of the peptide-cJun heterodimer; duplicate experiments; settings: both partners purified
[5] = target: T2, cJun (60 amino acid construct …); test: cell-based or functional assay

T2 sequence (P05412 252-315): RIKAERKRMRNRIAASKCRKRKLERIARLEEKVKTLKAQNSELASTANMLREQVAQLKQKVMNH
T1 sequence (P05412 252-315 limits assumed): as the sequence (P05412 252-315) above

## CC[C@H](C)[C@H](NC(=O)[C@H](CCC(=O)O)NC(=O)[C@H](CCCCN)NC(=O)[C@H](CCCNC(=N)N)NC(=O)[C@H](CC(C)C)NC(=O)[C@H](C)NC(=O)[C@H](Cc1ccc(O)cc1)NC(=O)[C@H](CC(N)=O)NC(=O)[C@H](CCCNC(=N)N)NC(=O)[C@H](CCC(=O)O)NC(=O)[C@H](CCC(=O)O)NC(=O)[C@H](CC(C)C)NC(=O)[C@H](CCC(N)=O)NC(=O)[C@H](CCC(=O)O)NC(=O)[C@@H](NC(=O)[C@H](CCC(=O)O)NC(=O)[C@H](CCC(=O)O)NC(=O)[C@H](CCC(=O)O)NC(=O)[C@H](CC(C)C)NC(=O)[C@@H](NC(=O)[C@H](CC(=O)O)NC(=O)[C@H](CCC(=O)O)NC(=O)[C@H](CCC(=O)O)NC(=O)[C@@H](NC(=O)[C@@H](NC(=O)[C@H](CC(C)C)NC(=O)[C@@H]1CC(=O)NCCCC[C@H](NC(C)=O)C(=O)N[C@@H](CCC(=O)O)C(=O)N[C@@H](C)C(=O)N[C@@H](CCC(=O)O)C(=O)N1)C(C)C)C(C)C)C(C)C)[C@@H](C)CC)C(=O)N[C@@H](CCCCN)C(=O)N[C@@H](CC(=O)O)C(=O)N[C@@H](CC(C)C)C(=O)N[C@@H](CCC(N)=O)C(=O)N[C@@H](CC(=O)O)C(=O)N[C@@H](CCC(N)=O)C(N)=O [HW19] (Ac-KEAEDLVVEEDVLEEEIEQLEERNYALRKEIKDLQDQ-NH2; lactam 1-5 (inferred))
[1]
  Tm of peptide-cJun heterodimer: 58.5 ± 1.0 °C
[2]
  fH, peptide fraction helicity: 40.1%
[2]; cyclized versus its linear counterpart
  change in fH due to lactamization: ~1%

## Ac-EAEELVVEEKVLEDEIEQLEERNYALRKEIEDLQKQ-NH2 [HW22]
[1]
  Tm of peptide-cJun heterodimer: 54.9 ± 1.2 °C
[2]
  fH, peptide fraction helicity: 37.2%

## Ac-KEAEDLVVEEDVLEEEIEQLEERNYALRKEIKDLQDQ-NH2 [HW18]
[1]
  Tm of peptide-cJun heterodimer: 56.5 ± 1.6 °C
[2]
  fH, peptide fraction helicity: 38.7%

## Ac-EAEELVVEEDVLEEEIEQLEERNYALRKEIKDLQDQ-NH2 [HW28]
[1]
  Tm of peptide-cJun heterodimer: 55.6 ± 1.2 °C
[2]
  fH, peptide fraction helicity: 35.0%

## Ac-LVVEEDVLEEEIEQLEEKNKALKDEIEDLQKQLEKLY-NH2 [HW10]
[1]
  Tm of peptide-cJun heterodimer: 64.3 ± 1.3 °C
[2]
  fH, peptide fraction helicity: 45.6%

## Ac-EAEELVVEEDVLEEEIKQLEDRNYALRKEIEDLQKQ-NH2 [HW24]
[1]
  Tm of peptide-cJun heterodimer: 55.5 ± 1.7 °C
[2]
  fH, peptide fraction helicity: 37.0%

## Ac-LEKEAEELVVEEDVLEEEIEQLEERNYALRKEIEDLQKQLEKL-NH2 [HW3]
[1]
  Tm of peptide-cJun heterodimer: 67.9 ± 0.9 °C
[2]
  fH, peptide fraction helicity: 38.3%

## EDVLEEEIEQLEERNYALRKEIEDLQKQLEKLGAP-NH2 (C-terminus assumed) [HW6]
[1]
  Tm of peptide-cJun heterodimer: 55.1 ± 1.1 °C
[2]
  fH, peptide fraction helicity: 38.0%

## Ac-LVVEEDVLEEEIEQLEERNYALRKEIEDLQKQLEDL-NH2 [HW12]
[1]
  Tm of peptide-cJun heterodimer: 62.1 ± 1.4 °C
[2]
  fH, peptide fraction helicity: 43.0%

## Ac-EAKELVDEEDVLEEEIEQLEERNYALRKEIEDLQKQ-NH2 [HW20]
[1]
  Tm of peptide-cJun heterodimer: 57.5 ± 1.1 °C
[2]
  fH, peptide fraction helicity: 36.9%

B1: HW8 (peptide)
peptide: Ac-EAEELVVEEDVLEEEIEQLEERNYALRKEIEDLQKQ-NH2
notes: truncation NΔ20 CΔ7 of HW1; source: synthetic peptide (Fmoc SPPS, RP-HPLC purified)
[3]
  Kd: 1.1 µM
  dH: -5.99 kcal/mol
  stoichiometry N: 0.95
[4]
  Tm of the peptide-cJun heterodimer: 57.1 °C
[5]
  IC50 CD: peptide added to pre-incubated cJun (20 μM) and TRE DNA (5 μM); blocks cJun/TRE DNA binding: 82.1 µM

B2: HW23 (peptide)
peptide: Ac-EAEELVVEEKVLEDEIEQLEERNYALRKEIEDLQKQ-NH2
modifications: lactam 10-14
SMILES: CC[C@H](C)[C@H](NC(=O)[C@H](CCC(=O)O)NC(=O)[C@H](CCCCN)NC(=O)[C@H](CCCNC(=N)N)NC(=O)[C@H](CC(C)C)NC(=O)[C@H](C)NC(=O)[C@H](Cc1ccc(O)cc1)NC(=O)[C@H](CC(N)=O)NC(=O)[C@H](CCCNC(=N)N)NC(=O)[C@H](CCC(=O)O)NC(=O)[C@H](CCC(=O)O)NC(=O)[C@H](CC(C)C)NC(=O)[C@H](CCC(N)=O)NC(=O)[C@H](CCC(=O)O)NC(=O)[C@@H](NC(=O)[C@H](CCC(=O)O)NC(=O)[C@@H]1CC(=O)NCCCC[C@H](NC(=O)[C@H](CCC(=O)O)NC(=O)[C@H](CCC(=O)O)NC(=O)[C@@H](NC(=O)[C@@H](NC(=O)[C@H](CC(C)C)NC(=O)[C@H](CCC(=O)O)NC(=O)[C@H](CCC(=O)O)NC(=O)[C@H](C)NC(=O)[C@H](CCC(=O)O)NC(C)=O)C(C)C)C(C)C)C(=O)N[C@@H](C(C)C)C(=O)N[C@@H](CC(C)C)C(=O)N[C@@H](CCC(=O)O)C(=O)N1)[C@@H](C)CC)C(=O)N[C@@H](CCC(=O)O)C(=O)N[C@@H](CC(=O)O)C(=O)N[C@@H](CC(C)C)C(=O)N[C@@H](CCC(N)=O)C(=O)N[C@@H](CCCCN)C(=O)N[C@@H](CCC(N)=O)C(N)=O
notes: cyclized form of the pair HW22/HW23; NΔ20 CΔ7; source: synthetic peptide (Fmoc SPPS, on-resin lactamization, RP-HPLC purified)
[3]
  Kd: 0.0696 µM
  dH: -14.1 kcal/mol
  stoichiometry N: 1.2
[4]
  Tm of the peptide-cJun heterodimer: 64 °C
[5]
  IC50 CD: peptide added to pre-incubated cJun (20 μM) and TRE DNA (5 μM); blocks cJun/TRE DNA binding: 74.9 µM

B3: HW29 (peptide)
peptide: Ac-EAEELVVEEDVLEEEIEQLEERNYALRKEIKDLQDQ-NH2
modifications: lactam 31-35
SMILES: CC[C@H](C)[C@H](NC(=O)[C@H](CCC(=O)O)NC(=O)[C@H](CCCCN)NC(=O)[C@H](CCCNC(=N)N)NC(=O)[C@H](CC(C)C)NC(=O)[C@H](C)NC(=O)[C@H](Cc1ccc(O)cc1)NC(=O)[C@H](CC(N)=O)NC(=O)[C@H](CCCNC(=N)N)NC(=O)[C@H](CCC(=O)O)NC(=O)[C@H](CCC(=O)O)NC(=O)[C@H](CC(C)C)NC(=O)[C@H](CCC(N)=O)NC(=O)[C@H](CCC(=O)O)NC(=O)[C@@H](NC(=O)[C@H](CCC(=O)O)NC(=O)[C@H](CCC(=O)O)NC(=O)[C@H](CCC(=O)O)NC(=O)[C@H](CC(C)C)NC(=O)[C@@H](NC(=O)[C@H](CC(=O)O)NC(=O)[C@H](CCC(=O)O)NC(=O)[C@H](CCC(=O)O)NC(=O)[C@@H](NC(=O)[C@@H](NC(=O)[C@H](CC(C)C)NC(=O)[C@H](CCC(=O)O)NC(=O)[C@H](CCC(=O)O)NC(=O)[C@H](C)NC(=O)[C@H](CCC(=O)O)NC(C)=O)C(C)C)C(C)C)C(C)C)[C@@H](C)CC)C(=O)N[C@H]1CCCCNC(=O)C[C@@H](C(=O)N[C@@H](CCC(N)=O)C(N)=O)NC(=O)[C@H](CCC(N)=O)NC(=O)[C@H](CC(C)C)NC(=O)[C@H](CC(=O)O)NC1=O
notes: cyclized form of the pair HW28/HW29; NΔ20 CΔ7; source: synthetic peptide (Fmoc SPPS, on-resin lactamization, RP-HPLC purified)
[3]
  Kd: 0.0866 µM
  dH: -23.6 kcal/mol
  stoichiometry N: 0.97
[4]
  Tm of the peptide-cJun heterodimer: 65 °C
[5]
  IC50 CD: peptide added to pre-incubated cJun (20 μM) and TRE DNA (5 μM); blocks cJun/TRE DNA binding: 52.7 µM

B4: HW30 (peptide)
peptide: Ac-EAEELVVEEKVLEDEIEQLEERNYALRKEIKDLQDQ-NH2
modifications: lactam 10-14, 31-35
SMILES: CC[C@H](C)[C@H](NC(=O)[C@H](CCC(=O)O)NC(=O)[C@H](CCCCN)NC(=O)[C@H](CCCNC(=N)N)NC(=O)[C@H](CC(C)C)NC(=O)[C@H](C)NC(=O)[C@H](Cc1ccc(O)cc1)NC(=O)[C@H](CC(N)=O)NC(=O)[C@H](CCCNC(=N)N)NC(=O)[C@H](CCC(=O)O)NC(=O)[C@H](CCC(=O)O)NC(=O)[C@H](CC(C)C)NC(=O)[C@H](CCC(N)=O)NC(=O)[C@H](CCC(=O)O)NC(=O)[C@@H](NC(=O)[C@H](CCC(=O)O)NC(=O)[C@@H]1CC(=O)NCCCC[C@H](NC(=O)[C@H](CCC(=O)O)NC(=O)[C@H](CCC(=O)O)NC(=O)[C@@H](NC(=O)[C@@H](NC(=O)[C@H](CC(C)C)NC(=O)[C@H](CCC(=O)O)NC(=O)[C@H](CCC(=O)O)NC(=O)[C@H](C)NC(=O)[C@H](CCC(=O)O)NC(C)=O)C(C)C)C(C)C)C(=O)N[C@@H](C(C)C)C(=O)N[C@@H](CC(C)C)C(=O)N[C@@H](CCC(=O)O)C(=O)N1)[C@@H](C)CC)C(=O)N[C@H]1CCCCNC(=O)C[C@@H](C(=O)N[C@@H](CCC(N)=O)C(N)=O)NC(=O)[C@H](CCC(N)=O)NC(=O)[C@H](CC(C)C)NC(=O)[C@H](CC(=O)O)NC1=O
notes: double lactamized peptide; NΔ20 CΔ7; also called double lactam peptide HW30; source: synthetic peptide (Fmoc SPPS, on-resin lactamization, RP-HPLC purified)
[3]
  Kd: 0.00969 µM
  dH: -30.5 kcal/mol
  stoichiometry N: 1.05
[4]
  Tm of the peptide-cJun heterodimer: 63.2 °C
[5]
  IC50 CD: peptide added to pre-incubated cJun (20 μM) and TRE DNA (5 μM); blocks cJun/TRE DNA binding: 44.9 µM

B5: HingeW (HW1) (peptide)
peptide: MASLEQRAEELARENEELEKEAEELVVEEDVLEEEIEQLEERNYALRKEIEDLQKQLEKLGAP
notes: TBS-selected 63-mer (acidic extension plus leucine zipper) with MAS N-cap and GAP C-cap; not shown: 6xHis, C-terminal, kept
[3]
  Kd: 0.00021 µM
  dH: -31 kcal/mol
  stoichiometry N: 0.93
[4]
  Tm of the peptide-cJun heterodimer: 71.2 °C
[5]
  IC50 CD: peptide added to pre-incubated cJun (20 μM) and TRE DNA (5 μM); blocks cJun/TRE DNA binding: 13.4 µM
